{"source": "ChEMBL document CHEMBL5233245", "about": "“Monocarboxylate transporter 1 and 4 inhibitors as potential therapeutics for treating solid tumours: A review with structure-activity relationship insights” (Eur J Med Chem, 2020)", "key": {"[1]": {"substrate": "CC(C)(OCc1nn(Cc2ccccc2)c2ccccc12)C(=O)O", "conditions": "Homo sapiens; Oocyte; time 10.0 min"}, "[2]": {"substrate": "CC(=O)C(=O)O", "test": "(§1) Substrate activity at rat MCT2 expressed in Xenopus laevis oocytes assessed as Km by Michaelis-Menten analysis", "type": "cell-based", "conditions": "Oocyte"}, "[3]": {"substrate": "C[C@H](O)C(=O)O", "test": "as §1", "type": "cell-based", "conditions": "Oocyte"}, "[4]": {"substrate": "C[C@H](O)C(=O)O", "test": "Substrate activity at chicken MCT3 expressed in yeast assessed as Km incubated for 3 mins by Michaelis-Menten analysis", "conditions": "Gallus gallus"}, "[5]": {"substrate": "CCC(=O)C(=O)O", "test": "(§2) Substrate activity at rat MCT4 expressed in Xenopus laevis oocytes assessed as Km", "type": "cell-based", "conditions": "Oocyte"}, "[6]": {"substrate": "C[C@H](O)C(=O)O", "test": "as §2", "type": "cell-based", "conditions": "Oocyte"}, "[7]": {"substrate": "CCC(=O)C(=O)O", "test": "(§3) Substrate activity at rat MCT1 expressed in Xenopus laevis oocytes assessed as Km", "type": "cell-based", "conditions": "Oocyte"}, "[8]": {"substrate": "C[C@@H](O)C(=O)O", "test": "as §3", "type": "cell-based", "conditions": "Oocyte"}, "[9]": {"substrate": "C[C@H](O)C(=O)O", "test": "as §3", "type": "cell-based", "conditions": "Oocyte"}}}
{"protein": "Monocarboxylate transporter 4 (Homo sapiens), O15427 (protein) MGGAVVDEGPTGVKAPDGGWGWAVLFGCFVITGFSYAFPKAVSVFFKELIQEFGIGYSDTAWISSILLAMLYGTGPLCSVCVNRFGCRPVMLVGGLFASLGMVAASFCRSIIQVYLTTGVITGLGLALNFQPSLIMLNRYFSKRRPMANGLAAAGSPVFLCALSPLGQLLQDRYGWRGGFLILGGLLLNCCVCAALMRPLVVTAQPGSGPPRPSRRLLDLSVFRDRGFVLYAVAASVMVLGLFVPPVFVVSYAKDLGVPDTKAAFLLTILGFIDIFARPAAGFVAGLGKVRPYSVYLFSFSMFFNGLADLAGSTAGDYGGLVVFCIFFGISYGMVGALQFEVLMAIVGTHKFSSAIGLVLLMEAVAVLVGPPSGGKLLDATHVYMYVFILAGAEVLTSSLILLLGNFFCIRKKPKEPQPEVAAAEEEKLHKPPADSGVDLREVEHFLKAEPEKNGEVVHTPETSV", "values": [{"measurement": "Km", "setting": "[1]", "result": 2.8, "unit": "mM"}]}
{"protein": "Monocarboxylate transporter 2 (Rattus norvegicus), Q63344 (protein) MPSESSVKATAAPPPFPLPPDGGWGWVVVCASFISIGFSYAFPKAVTVFFNDIKDIFKTTSSQIAWISSIMLAVMYAGGPISSVLVNNYGSRPVVIVGGLLCCTGMILASFSSSVIELYLTVGFIGGLGLAFNLQPALTIIGKYFYRKRPLANGFAMAGSPVFLSTLAPFNQFLFNSYGWKGSFLILGAIFLHSCVAGCLMRPVGPSPRAAKSKSKVGSRQDSSTKRLSKVSTAEKINRFLDFGLFTHRGFLIYLSGNVVLFLGMFAPIIFLAPYAKDKGVDDYNSAFLLSVMAFTDMFARPSVGLIANTSLIRPRIQYLFSVAIMFTGICHLLCPLAHSYTALVVYVIFFGIGFGSISSLLFECLMDQVGASRFSSAVGLVTIVECCPVLFGPPLAGKLLDITGQYKYLYIASGIVVLSSGIYLLICNAINYRLLEKERKREKARRKKSASQASKEMEALSRSKQDDVTVKVSNTHNPPSDRDKESSI", "values": [{"measurement": "Km", "setting": "[2]", "result": 0.08, "unit": "mM"}, {"measurement": "Km", "setting": "[3]", "result": 0.75, "unit": "mM"}]}
{"protein": "Monocarboxylate transporter 3 (Gallus gallus), Q90632 (protein) MGRADPEEGQLPAPVKPPDGGWGWIVLFGCFVITGFSYAFPKAVSVYFKELMKDFHVGYSDTAWISSIMLAMLYGTGPVCSIMVNQFGCRPVMLIGGLLASSGMILASFTTNIIELYLTAGVLTGLGMALNFQPSLIMLGTYFDKRRPLANGLAAAGSPVFLSSLSPLGQVLLEKFGWRGGFLIMGGLLLNCCTCGAVMRPLDAGMKRKTEKAQDKYEAKEMLPMGGKSEEGISTTDGTKKTKKAKKKPKKGKKLLDFSIFSNRGFIIYTISKFILVLGLFVPPILLVNYAKDTGVPDTEAAFLLSIIGFIDIFARPACGMVAGLKWVRPHVAYLFSFAMLFNGLTDICSARASNYTGLVIFCVFFGISYGMVGALQFEVLMAIVGSQKFSSAIGLVLLIEAFAVLIGPPSAGRLVDALKNYEVIFYLAGSEVVLSALFLAMATYCCLNRGKKTPPPEKNPSAGGGSDTEEAESDVQEAEEHSSDNHQPAHGTDKATVAANEEANHVEDEQSGEGGRCPEADGEVSSRAGCNADQTVERDSF", "values": [{"measurement": "Km", "setting": "[4]", "result": 6, "unit": "mM"}]}
{"protein": "Monocarboxylate transporter 4 (Rattus norvegicus), O35910 (protein) MGGAVVDEGPTGIKAPDGGWGWAVLFGCFIITGFSYAFPKAVSVFFKELMHEFGIGYSDTAWISSILLAMLYGTGPLCSMCVNRFGCRPVMLVGGLFASLGMVAASFCRSIIQIYLTTGVITGLGLALNFQPSLIMLNRYFNKRRPMANGLAAAGSPVFLCALSPLGQLLQDHYGWRGGFLILGGLLLNCCVCAALMRPLVAPQASGGAEPHGPQRPSPRLLDLSVFRDRGFLIYAVAASIMVLGLFVPPVFVVSYAKDMGVPDTKAAFLLTILGFIDIFARPTAGFITGLKKVRPYSVYLFSFAMFFNGFTDLTGSTASDYGGLVVFCIFFGISYGMVGALQFEVLMAIVGTQKFSSAIGLVLLLEAVAVLIGPPSGGKLLDATKVYKYVFILAGAEVLTSSLVLLLGNFFCIGKRKRPEVTKPEEVASEEEKLHKPPVDVRVDSREVEHFLKAEPEKNGEVVHTPETSV", "values": [{"measurement": "Km", "setting": "[5]", "result": 57, "unit": "mM"}, {"measurement": "Km", "setting": "[6]", "result": 22, "unit": "mM"}]}
{"protein": "Monocarboxylate transporter 1 (Rattus norvegicus), P53987 (protein) MPPAIGGPVGYTPPDGGWGWAVVVGAFISIGFSYAFPKSITVFFKEIEIIFSATTSEVSWISSIMLAVMYAGGPISSILVNKYGSRPVMIAGGCLSGCGLIAASFCNTVQELYFCIGVIGGLGLAFNLNPALTMIGKYFYKKRPLANGLAMAGSPVFLSTLAPLNQAFFGIFGWRGSFLILGGLLLNCCVAGSLMRPIGPQQGKVEKLKSKESLQEAGKSDANTDLIGGSPKGEKLSVFQTVNKFLDLSLFTHRGFLLYLSGNVVMFFGLFTPLVFLSNYGKSKHFSSEKSAFLLSILAFVDMVARPSMGLAANTRWIRPRVQYFFAASVVANGVCHLLAPLSTTYVGFCIYAGVFGFAFGWLSSVLFETLMDLVGPQRFSSAVGLVTIVECCPVLLGPPLLGRLNDMYGDYKYTYWACGVILIIAGLYLFIGMGINYRLVAKEQKAEEKKRDGKEDETSTDVDEKPKKTMKETQSPAPLQNSSGDPAEEESPV", "values": [{"measurement": "Km", "setting": "[7]", "result": 0.2, "unit": "mM"}, {"measurement": "Km", "setting": "[8]", "result": "> 60", "unit": "mM"}, {"measurement": "Km", "setting": "[9]", "result": 3.5, "unit": "mM"}]}
